For experiment [1], the target named is hemagglutinin (HA) of influenza virus B/Lee/40 (Old) (influenza B virus) (UniProt P03460). Description: cell-based or functional assay.
The target of experiment [2] is hemagglutinin (HA) of influenza virus B/Brisbane/60/08 (Victoria) (influenza B virus). Description: cell-based or functional assay.
For experiment [3], the target named is hemagglutinin (HA) of influenza virus B/Florida/04/06 (Yamagata) (influenza B virus). Description: cell-based or functional assay.
In experiment [4] the target is recombinant HA of B/Brisbane/60/08 (Victoria) (influenza B virus). The experiment is described as follows: biolayer interferometry (Octet), steady-state fit, geometric mean, pH 7.4.
Experiment [5] has as its target recombinant HA of B/Florida/04/06 (Yamagata) (influenza B virus). The description is as above.
Experiment [6] concerns the target HA of B/Florida/04/2006 (Yamagata) (influenza B virus). The experiment is described as follows: cell-based or functional assay.
Experiment [7] addresses HA of B/Brisbane/60/2008 (Victoria) (influenza B virus). The experiment is described as follows: cell-based or functional assay.
For experiment [8], the target named is HA of B/Florida/04/2006 (Yamagata) (influenza B virus). Description: AlphaLISA competition vs CR9114.
Experiment [9] addresses HA of B/Brisbane/60/2008 (Victoria) (influenza B virus). The experiment is described as follows: AlphaLISA competition vs CR9114.
The target of experiment [10] is HA of B/Florida/04/2006 (Yamagata) (influenza B virus). Description: AlphaLISA competition vs CR8071.
Experiment [11] addresses HA of B/Brisbane/60/2008 (Victoria) (influenza B virus). The experiment is described as follows: AlphaLISA competition vs CR8071.
In experiment [12] the target is HA of B/Florida/04/2006 (Yamagata) (influenza B virus). The experiment is described as follows: AlphaLISA competition vs CR8033.

B1: MD1221 (VHH)
chain: EVQLVESGGGLVQPGGSLRLSCAATGFTLENKAIGWFRQTPGSEREGVLCISKSGSWTYYTDSMRGRFTISRDNAENTVYLQMDSLKPEDTAVYYCATTTAGGGLCWDGTTFSRLASSWGQGTQVTVSSAAAGGGGSGGGGSGGGGSGGGGSGGGGSGGGGSGGGGSEVQLVESGGGLVQPGGSLRLSCAATGFTLENKAIGWFRQTPGSEREGVLCISKSGSWTYYTDSMRGRFTISRDNAENTVYLQMDSLKPEDTAVYYCATTTAGGGLCWDGTTFSRLASSWGQGTQVTVSS
For the molecule B1, the neutralization titer was 32.5 nM in experiment [1], 23.4 nM in experiment [2] and 76.4 nM in experiment [3]. The Kd in [4] is 1.7 nM; in experiment [5], 1.9 nM.

B2: SD1086 (VHH)
VHH: EVQLVESGGGLVQAGGSLRLSCTASGSISSIDYMRWYRQYPGKHRELVATITSGGAADSRDSVKGRFTVSRGNAANTMYLQMNNLKPEDTAVYYCNAYGLEIGAHWGRGTQVTVSS
Consider B2, for which the values for the VNA titer in [6] and in experiment [7] were greater than 1000 nM and 827 nM, respectively. Besides, the pIC50 in experiment [8] was 8; in experiment [9], 8.6; in [10], less than 7; in experiment [11], less than 7; in experiment [12], less than 7.
